Data taken from patent US20220348688A1 (PROMAB BIOTECHNOLOGIES, published 2022).

How the values were obtained:
[1] = molecular target: T1, CD3 epsilon chain (CD3e) (human, UniProt P07766 23-207); assay: FACS on CD3-positive T cells
T1 construct: whole, on cells; also called CD3 antigen
Description: The allophycocyanin (APC)-labeled anti-CD3 (eBioscience, San Diego, Calif.) antibody was used for FACS analysis using FACSCalibur (BD Biosciences).
CD3-positive T cells were used for testing binding to CD3.

[2] = molecular target: T1, CD3 epsilon chain (CD3e); assay: FACS

T1 sequence (P07766 23-207): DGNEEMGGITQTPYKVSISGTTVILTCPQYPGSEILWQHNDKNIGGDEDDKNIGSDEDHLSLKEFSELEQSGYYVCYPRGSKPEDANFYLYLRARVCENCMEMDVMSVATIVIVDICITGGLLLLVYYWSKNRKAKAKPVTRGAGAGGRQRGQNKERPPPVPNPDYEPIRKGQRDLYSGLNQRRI

| Binder | binding result [1] | binding result [2] |
| --- | --- | --- |
| PLAP h4-CD3e bispecific antibody (FIG. 1A structure) (bispecific antibody, Two PLAP Fab arms and one CD3e crossover Fab; knob-into-hole human IgG Fc with P329G, L234A, L235A; also called PLAP h4-CD3 antibody; PLAP h4-Cd3 antibody) light: DIQMTQSPSSLSASVGDRVTITCRASENIYSYVAWYQQKPGKAPKLLIYNAKSLASGVPSRFSGSGSGTDFTLTISSLQPEDFATYYCQHHYVSPWTFGGGTKLEIKRTVAAPSVFIFPPSDEQLKSGTASVVCLLNNFYPREAKVQWKVDNALQSGNSQESVTEQDSKDSTYSLSSTLTLSKADYEKHKVYACEVTHQGLSSPVTKSFNRGEC QAVVTQEPSLTVSPGGTVTLTCGSSTGAVTTSNYANWVQEKPGQAFRGLIGGTNKRAPGTPARFSGSLLGGKAALTLSGAQPEDEAEYYCALWYSNLWVFGGGTKLTVLSSASTKGPSVFPLAPSSKSTSGGTAALGCLVKDYFPEPVTVSWNSGALTSGVHTFPAVLQSSGLYSLSSVVTVPSSSLGTQTYICNVNHKPSNTKVDKKVEPKSC heavy 1: not shown heavy 2: QVQLQESGPGLVKPSETLSLTCTVSGGSITSYGVSWIRQPPGKGLEWIGVIWEDGSTNYHSALISRVTISVDTSKNQFSLKLSSVTAADTAVYYCARPHYGSSYVGAMEYWGAGTTVTVSSTKGPSVFPLAPSSKSTSGGTAALGCLVKDYFPEPVTVSWNSGALTSGVHTFPAVLQSSGLYSLSSVVTVPSSSLGTQTYICNVNHKPSNTKVDKKVEPKSCDKTHTCPPCPAPEAAGGPSVFLFPPKPKDTLMISRTPEVTCVVVDVSHEDPEVKFNWYVDGVEVHNAKTKPREEQYNSTYRVVSVLTVLHQDWLNGKEYKCKVSNKALGAPIEKTISKAKGQPREPQVCTLPPSRDELTKNQVSLSCAVKGFYPSDIAVEWESNGQPENNYKTTPPVLDSDGSFFLVSKLTVDKSRWQQGNVFSCSVMHEALHNHYTQKSLSLSPGK | binds |  |
| PLAP h4-CD3e bivalent antibody (PBM0015), FIG. 1B structure (bispecific antibody, Two PLAP Fab arms; the CD3 scFv is attached to the C-terminal end of CH3 of the knob chain; also called bivalent PLAP h4-CD3 Ab; bivalent humanized PLAPh4-CD3 antibody) light: DIQMTQSPSSLSASVGDRVTITCRASENIYSYVAWYQQKPGKAPKLLIYNAKSLASGVPSRFSGSGSGTDFTLTISSLQPEDFATYYCQHHYVSPWTFGGGTKLEIKRTVAAPSVFIFPPSDEQLKSGTASVVCLLNNFYPREAKVQWKVDNALQSGNSQESVTEQDSKDSTYSLSSTLTLSKADYEKHKVYACEVTHQGLSSPVTKSFNRGEC heavy 1: not shown heavy 2: QVQLQESGPGLVKPSETLSLTCTVSGGSITSYGVSWIRQPPGKGLEWIGVIWEDGSTNYHSALISRVTISVDTSKNQFSLKLSSVTAADTAVYYCARPHYGSSYVGAMEYWGAGTTVTVSSTKGPSVFPLAPSSKSTSGGTAALGCLVKDYFPEPVTVSWNSGALTSGVHTFPAVLQSSGLYSLSSVVTVPSSSLGTQTYICNVNHKPSNTKVDKKVEPKSCDKTHTCPPCPAPEAAGGPSVFLFPPKPKDTLMISRTPEVTCVVVDVSHEDPEVKFNWYVDGVEVHNAKTKPREEQYNSTYRVVSVLTVLHQDWLNGKEYKCKVSNKALGAPIEKTISKAKGQPREPQVCTLPPSRDELTKNQVSLSCAVKGFYPSDIAVEWESNGQPENNYKTTPPVLDSDGSFFLVSKLTVDKSRWQQGNVFSCSVMHEALHNHYTQKSLSLSPGK |  | binds |
